For the series, the target named is hnRNP G-T RRM (Homo sapiens) (UniProt O75526). Description: EMSA. The following applies: EMSA with radio-labelled T7 transcripts and 30 or 100 ng RRM protein; buffer, salt, pH and temperature not given in material.

pKd: −log10 of the molar value.

A word on the pKd: it is the Kd on a negative log10 scale, so that one unit is a factor of ten.

Chain of hnRNP G-T RRM (Homo sapiens) (O75526 8-86): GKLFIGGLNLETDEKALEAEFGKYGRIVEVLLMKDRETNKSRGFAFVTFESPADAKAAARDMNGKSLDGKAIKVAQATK

Regarding “AGGUAUUGGGCUUUGGCUGAGGGCUUUUUGUUGUUGUUGUUGUUGUU [ABwt]”, the pKd is 8.77.
